B1: TPAV PTE capped (structured_RNA)
RNA: GGACAAGACCCCAGGCGGGACGCCACACCCAUGUUUGCAGACAUGGCCCGAGGAAACUCUGGUGUGGGCUGGGGGGAAUCC
modifications: 5' cap
B2: TPAV PTE uncapped (structured_RNA)
RNA: B1 RNA
B3: PEMV2 PTE capped (structured_RNA)
RNA: GUAGUGGUAGAACACGUGGGAUAGGGGAUGACCUUGUCGACCGGUUAUCGGUCCCCUGCUCCUUCGAGCUGGCAAGGCGCUCACAGGUUCUACACUGCUACUA
modifications: 5' cap
B4: PEMV2 PTE uncapped (structured_RNA)
RNA: B3 RNA

Assays:
human eIF4E [1] = target: T1, human eIF4E (Homo sapiens, UniProt P06730 1-217); assay: EMSA; EMSA: 10 mM HEPES pH 7.5, 20 mM KCl, 1 mM DTT, 3 mM MgCl2, 1 ug/uL tRNA, 0.5 ug/uL BSA, 1 U/uL RNaseOUT, 5% glycerol, 10 uL, 25 min on ice, gel at 4 C; SHAPE: benzoyl cyanide, 22 C; settings: protein: recombinant; label: 32P; pseudoknot between C and G domains
human eIF4E [2] = target: T1, human eIF4E; assay: EMSA; text: not shifted by 2 uM; EMSA: 10 mM HEPES pH 7.5, 20 mM KCl, 1 mM DTT, 3 mM MgCl2, 1 ug/uL tRNA, 0.5 ug/uL BSA, 1 U/uL RNaseOUT, 5% glycerol, 10 uL, 25 min on ice, gel at 4 C; SHAPE: benzoyl cyanide, 22 C; settings: protein: recombinant; label: 32P; pseudoknot between C and G domains; three bands without protein

T1 sequence (P06730 whole entry): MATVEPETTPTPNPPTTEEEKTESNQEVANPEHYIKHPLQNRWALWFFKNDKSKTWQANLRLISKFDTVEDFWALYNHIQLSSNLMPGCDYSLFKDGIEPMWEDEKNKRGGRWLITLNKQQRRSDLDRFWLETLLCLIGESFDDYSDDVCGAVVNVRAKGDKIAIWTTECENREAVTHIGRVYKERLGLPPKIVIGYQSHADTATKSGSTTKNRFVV

Row | Binder | Kd (human eIF4E [1]) | Kd (human eIF4E [2])
1 | B1 | 160 ± 1 nM | 
2 | B2 | 838 ± 124 nM | 
3 | B3 | 285 ± 33 nM | 
4 | B4 |  | 2520 ± 435 nM
